Data reported in patent US20210301005A1 (Genentech, published 2021).
Like-named read-outs stand apart in the source and are kept apart here.

T1: human TGFβ3, mature dimeric form (human, UniProt P10600 301-412)
T1 sequence: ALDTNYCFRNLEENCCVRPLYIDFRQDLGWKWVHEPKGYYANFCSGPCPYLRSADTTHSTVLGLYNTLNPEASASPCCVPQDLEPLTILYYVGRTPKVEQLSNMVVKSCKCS

T2: human TGFβ2, mature receptor-binding domain (human, UniProt P09858 303-414 (pig entry), The mature TGFβ2 is a disulfide-linked homodimer of this 112-residue chain. The 4A11 epitope spans both monomers (p-1207).)
T2 sequence: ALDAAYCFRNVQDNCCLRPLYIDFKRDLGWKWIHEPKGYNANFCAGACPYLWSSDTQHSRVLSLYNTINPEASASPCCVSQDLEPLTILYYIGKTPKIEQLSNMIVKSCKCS


How the values were obtained:
[1] = target: T3, human TGFβ1, mature receptor-binding domain (human, UniProt P01137 279-390); assay: cell-based or functional assay
[2] = target: T1, human TGFβ3, mature dimeric form; assay: cell-based or functional assay
[3] = target: T2, human TGFβ2, mature receptor-binding …; assay: cell-based or functional assay
[4] = target: T1, human TGFβ3, mature dimeric form; assay: BIAcore T200
[5] = target: T1, human TGFβ3, mature dimeric form; assay: BIAcore T200; remark: listed apart in the source
Protocol: (§1) For binding affinity determinations of all humanized 2A10 antibodies, Surface Plasmon Resonance (SPR) measurement with a BIAcore™-T200 instrument was used. Briefly, series S CM5 biosensor chip with protein A was first applied to capture each humanized 2A10 variant to achieve approximately 100 response units (RU) on each flow cell, following by injection of 3-fold serial dilutions of human TGFβ1, TGFβ2 or TGFβ3 (0.02 nM to 5 nM) in HBS-EP buffer (0.01M HEPES pH 7.4, 0.15M NaCl, 3 mM EDTA and 0.05% v/v surfactant P20) at 25° C. with a flow rate of 50 μl/min for kinetics measurement. Association rates (ko.) and dissociation rates (koff) were calculated using a simple one-to-one Langmuir binding model (BIAcore T200 evaluation software version 2.0) to determine the equilibrium dissociation constant (KD), which was calculated as the ratio koff/kₒₙ.

[6] = target: T2, human TGFβ2, mature receptor-binding …; assay: BIAcore T200
Protocol: as §1

[7] = target: T1, human TGFβ3, mature dimeric form; assay: cell-based or functional assay; remark: listed apart in the source
[8] = target: T2, human TGFβ2, mature receptor-binding …; assay: BIAcore T200; remark: listed apart in the source
[9] = target: T3, human TGFβ1, mature receptor-binding …; assay: cell-based or functional assay; remark: listed apart in the source
[10] = target: T1, human TGFβ3, mature dimeric form; assay: cell-based or functional assay; remark: listed apart in the source
[11] = target: T2, human TGFβ2, mature receptor-binding …; assay: cell-based or functional assay; remark: listed apart in the source
[12] = target: T3, human TGFβ1, mature receptor-binding …; assay: cell-based or functional assay; remark: listed apart in the source
[13] = target: T1, human TGFβ3, mature dimeric form; assay: cell-based or functional assay; remark: listed apart in the source
[14] = target: T2, human TGFβ2, mature receptor-binding …; assay: cell-based or functional assay; remark: listed apart in the source
[15] = target: T2, human TGFβ2, mature receptor-binding …; assay: cell-based or functional assay; remark: listed apart in the source
[16] = target: T3, human TGFβ1, mature receptor-binding …; assay: cell-based or functional assay; remark: listed apart in the source
[17] = target: T1, human TGFβ3, mature dimeric form; assay: cell-based or functional assay; remark: listed apart in the source
[18] = target: T2, human TGFβ2, mature receptor-binding …; assay: cell-based or functional assay; remark: listed apart in the source
[19] = target: T1, human TGFβ3, mature dimeric form; assay: BIAcore T200; remark: listed apart in the source
Protocol: as §1
(§2) Binding affinity determinations of all humanized 4A11 antibodies were performed using SPR measurement with a BIAcore™-T200 instrument, as described above in Example 6 ([…]).

[20] = target: T2, human TGFβ2, mature receptor-binding …; assay: BIAcore T200; remark: listed apart in the source
Protocol: as §1, §2

T3 sequence (P01137 279-390 limits assumed): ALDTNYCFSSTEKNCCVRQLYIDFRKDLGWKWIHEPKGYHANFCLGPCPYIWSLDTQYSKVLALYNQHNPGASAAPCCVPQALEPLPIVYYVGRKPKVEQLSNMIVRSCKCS

Binder | Kd [8] | HEKBlue TGFβ blocking IC50 [9] | HEKBlue TGFβ blocking IC50 [10] | HEKBlue TGFβ blocking IC50 [11] | fold drop in blocking against r6F12 [15] | HEKBlue TGFβ blocking IC50 [16] | HEKBlue TGFβ blocking IC50 [17] | HEKBlue TGFβ blocking IC50 [18] | Kd [19] | Kd [20] | also measured
h2A10.v2.5 (antibody, human IgG1, kappa, N297G, V domains shown) VH: EVQLLESGGGLVQPGGSLRLSCAASGFDFNSYGMSWVRQAPGKGLEWVADIVSKTYNYTTYYSDSVKDRFTISRDDSKSTVYLQMNSLRAEDTAVYYCTVAPGGSFDYWGQGTLVTVSS VL: DIQLTQSPSSLSASVGDRVTITCRASQSVSISRFNLMHWYQHKPGKQPKLLIYRASNLASGIPSRFSGSGSGTDFTLTISSLQPEDFATYYCQHSRESPWTFGGGTKVEIKR | – | – | – | – | – | – | – | – | – | – | HEKBlue TGFβ blocking IC50 [1]: > 200000 pM; HEKBlue TGFβ blocking IC50 [2]: 27400 pM; HEKBlue TGFβ blocking IC50 [3]: > 200000 pM; fold drop in TGFβ3 binding against h2A10.v2 [4]: 385 fold; Kd [5]: 500 pM; Kd [6]: 2820 pM; fold loss of TGFβ3 blocking against h2A10.v2 [7]: > 10 fold
h2A10.v2.7 (antibody, human IgG1, kappa, N297G, V domains shown) VH: EVQLLESGGGLVQPGGSLRLSCAASGFDFNSYGMSWVRQAPGKGLELVADIVSKTYNYTTYYSDSVKDRFTISRDNSKSTVYLQMNSLRAEDTAVYYCTVAPGGSFDYWGQGTLVTVSS VL: DIQLTQSPSSLSASVGDRVTITCRASQSVSISRFNLMHWYQHKPGKQPKLLIYRASNLASGIPSRFSGSGSGTDFTLTISSLQPEDFATYYCQHSRESPWTFGGGTKVEIKR | – | – | – | – | – | – | – | – | – | – | HEKBlue TGFβ blocking IC50 [1]: > 200000 pM; HEKBlue TGFβ blocking IC50 [2]: 120 pM; HEKBlue TGFβ blocking IC50 [3]: > 200000 pM; Kd [5]: 3.2 pM; Kd [6]: 921 pM; fold loss of TGFβ3 blocking against h2A10.v2 [7]: > 10 fold
h6F12.v1 (antibody, human IgG1, kappa, N297G, V domains shown) VH: EVTLKESGPVLVKPTETLTLTCTVSGFSLTTYNVHWVRQPPGKALEWMGLIWNTGGTRYNSALKSRLTISKDTSKSQVVLTMTNMDPVDTATYYCARDPVPNKWHFDFWGPGTLVTVSS VL: DIQMTQSPSTLSASVGDRVTITCLASEDIYSNLAWYQQKPGKSPKLLIYDARSLQDGVPSRFSGSESGPEYTLTISSLQPDDFATYFCQQHHAYPFTFGQGTKVEIKR | ≤ 0.5 pM | > 200000 pM | > 200000 pM | 20 pM | 2.5 to 5 fold | – | – | – | – | – | HEKBlue TGFβ blocking IC50 [12]: > 200000 pM; HEKBlue TGFβ blocking IC50 [13]: > 200000 pM; HEKBlue TGFβ blocking IC50 [14]: 20 pM
h6F12.v3 (antibody, human IgG1, kappa, N297G, V domains shown) VH: EVTLKESGPVLVKPTETLTLTCTVSGFSLTTYNVHWVRQPPGKALEWMGLIWNTGGTRYNSALKSRLTISKDTSKSQVVLTMTNMDPVDTATYYCARDPVPNKWHFDFWGPGTLVTVSS VL: EIVMTQSPATLSVSPGERATLSCLASEDIYSNLAWYQQKPGQSPRLLIYDARSLQDGVPARFSGSESGPEYTLTISSLQSEDFAVYFCQQHHAYPFTFGQGTKVEIKR | ≤ 0.5 pM | > 200000 pM | > 200000 pM | 5 pM | – | – | – | – | – | – | –
h6F12.v2 (antibody, human IgG1, kappa, N297G, V domains shown) VH: EVQLQESGPGLVKPSETLSLTCTVSGFSLTTYNVHWVRQPPGKGLEWMGLIWNTGGTRYNSALKSRLTISKDTSKSQVSLKLSSVTAADTAVYYCARDPVPNKWHFDFWGPGTLVTVSS VL: DIQMTQSPSTLSASVGDRVTITCLASEDIYSNLAWYQQKPGKSPKLLIYDARSLQDGVPSRFSGSESGPEYTLTISSLQPDDFATYFCQQHHAYPFTFGQGTKVEIKR | ≤ 0.5 pM | > 200000 pM | > 200000 pM | 10 pM | 2.5 to 5 fold | – | – | – | – | – | –
h4A11.v7.17 (antibody, human IgG1, kappa, N297G, V domains shown) VH: EVQLQESGPGLVKPSETLSLTCTVTGFSLSSYTVNWIRQPAGKGLEWIGYISYGGSAYYASWANGRVTISKDTSKNQVSLKLSSVTAADTAVYYCARHMQVGGAPTGSMAAFDPWGQGTLVTVSS VL: EIVLTQSPGTLSLSPGERATLSCQSSQSVYNNNYLSWFQQKPGQAPRLLIYGASTLTSGIPDRFSGSGSGTDFTLTISRLEPEDFAVYYCAGGYSGSSDKYAFGGGTKVEIKR | – | – | – | – | – | > 200000 pM | 170 pM | 160 pM | 3.2 pM | 1.3 pM | –
h4A11.v7.19 (antibody, human IgG1, kappa, N297G, V domains shown) VH: EVQLQESGPGLVKPSETLSLTCTVTGFSLSSYTVNWIRQPAGKGLEWIGYISYGGSAYYASWANGRVTISKDTSQVSLKLSSVTAADTAVYFCARHMQVGGAPTGSMAAFDPWGQGTLVTVSS VL: EIVLTQSPGTLSLSPGERATLSCQSSQSVYNNNYLSWFQQKPGQAPRLLIYGASTLTSGIPDRFSGSGSGTDFTLTISRLEPEDFAVYYCAGGYSGSSDKYAFGGGTKVEIKR | – | – | – | – | – | > 200000 pM | 90 pM | 50 pM | ≤ 1.3 pM | 1 pM | –
h4A11.v7.18 (antibody, human IgG1, kappa, N297G, V domains shown) VH: EVQLQESGPGLVKPSETLSLTCTVTGFSLSSYTVNWIRQPAGKGLEWIGYISYGGSAYYASWANGRVTISKDTSKNQVSLKLSSVTAADTAVYFCARHMQVGGAPTGSMAAFDPWGQGTLVTVSS VL: EIVLTQSPGTLSLSPGERATLSCQSSQSVYNNNYLSWFQQKPGQAPRLLIYGASTLTSGIPDRFSGSGSGTDFTLTISRLEPEDFAVYYCAGGYSGSSDKYAFGGGTKVEIKR | – | – | – | – | – | > 200000 pM | 110 pM | 90 pM | 4.6 pM | 1.1 pM | –
h6F12.v4 (antibody, human IgG1, kappa, N297G, V domains shown) VH: EVQLQESGPGLVKPSETLSLTCTVSGFSLTTYNVHWVRQPPGKGLEWMGLIWNTGGTRYNSALKSRLTISKDTSKSQVSLKLSSVTAADTAVYYCARDPVPNKWHFDFWGPGTLVTVSS VL: EIVMTQSPATLSVSPGERATLSCLASEDIYSNLAWYQQKPGQSPRLLIYDARSLQDGVPARFSGSESGPEYTLTISSLQSEDFAVYFCQQHHAYPFTFGQGTKVEIKR | ≤ 0.5 pM | > 200000 pM | > 200000 pM | 20 pM | 2.5 to 5 fold | – | – | – | – | – | –
